Amyloid nucleation score data for 105 substances are collected here from the supplement of paper PMC12042874.

± gives the uncertainty stated by the source.

The data set in a line: amyloid nucleation score (Sup35N fusion, yeast selection) (log enrichment); library NNK1; higher = more nucleation; inactive = no reads after selection. The gist of the method:
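Growth for 7 days at 30°C on medium lacking adenine and uracil followed a 24-hour induction with 100 μM copper sulfate of psi-negative yeast expressing peptides of 20 random codons fused to Sup35N. Input and output plasmid inserts were sequenced with Illumina, and sequences with under 100 input reads were excluded. Nucleation score is the DiMSum log enrichment of output over input reads, centred on the mode score of non-aggregating sequences.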
Take VADCPCLGLVNTLAETMNVC: the amyloid nucleation score came out at 0.243 ± 0.6. The same measure for VAFLTKNCYEFDDTVRTCAV: -0.569 ± 0.42. VAGWRPFILLGGPRLNTVRQ displayed an amyloid nucleation score of 0.407 ± 0.67. VAKVLKSSCGRYG: the amyloid nucleation score is -0.573 ± 0.44. For the substance VANFET, the amyloid nucleation score is -0.769 ± 1.1.

Take VANQNHLSCDIMSSARCERH: the amyloid nucleation score was 0.244 ± 0.65.

With VAQLFHWADLYNTSYYVSCV, the amyloid nucleation score was 3.38 ± 0.089. VASTTSGRHWSLRGHKRFGR: the amyloid nucleation score came to 1.28 ± 0.72.

Regarding VATCWRYSGMSARLLSGSLN, the amyloid nucleation score amounted to 0.516 ± 0.4.

VAYSVI yielded an amyloid nucleation score of 1.02 ± 0.66. As for VCITNNELVGVFDDEVFIAF, the amyloid nucleation score entry was “inactive”.

Regarding VCKFNYL, the amyloid nucleation score was -0.769 ± 1.1. Consider VCKMSTLVDDWRGSARPHRL, for which the amyloid nucleation score worked out at 0.782 ± 0.37. VCLVFVFDVSTVPNICCYAT displayed an amyloid nucleation score of -0.189 ± 0.37. VCMLVHLVTFAPNS returned an amyloid nucleation score of 2.61 ± 0.26. VCRPYVRLSPGGM yielded an amyloid nucleation score of -1.27 ± 2.7.

Substance VCWYWVGILRMMICACTSPS yielded an amyloid nucleation score of 0.362 ± 0.43. VDEETMCSFLSLGKVY came in with an amyloid nucleation score of 0.474 ± 0.69. In turn, VDGMGYDLIMCLYYNGLWAN returned an amyloid nucleation score of 0.515 ± 0.54.

In turn, VDKKRAISCKSFRLYGRFSL showed an amyloid nucleation score of -0.647 ± 0.32. The value for VDKYIIFIEIYIADSCDTLG was 0.374 ± 0.54; that for VDLLNGDWNRSLMKAKPVER was 0.17 ± 0.29; that for VDLTLPASAVGNELCAREVG was 0.155 ± 0.34. VDMNAEKTSSDERLWERRRT returned an amyloid nucleation score of 0.606 ± 0.65.

Regarding VDRGCKYKQLMREVVSEHVI, the amyloid nucleation score worked out at 0.753 ± 0.63. The value for VDSSRRDVCDGDT was 0.104 ± 0.48; that for VEAESFARCDRHVHRQTIGG was 0.369 ± 0.54; that for VEAMLTEPWRWH was -0.522 ± 1.7. Consider VEFFFDF, for which the amyloid nucleation score was -0.417 ± 0.77. In turn, VEIYWWGYPPKNSI came in with an amyloid nucleation score of -0.239 ± 0.39. As to VELGRLIPPEHETQDLRSGW, the amyloid nucleation score was determined as 0.258 ± 0.46. Take VEQLFGLAMRDLA: the amyloid nucleation score is -0.448 ± 0.8. In turn, VESLDKIPMR registered an amyloid nucleation score of 0.173 ± 0.73. The value for VESVSWVCDRCTGLVLVWSG was “inactive”; that for VETRRWFHRL was -0.177 ± 1.4.

As for VEVKSCIWDFGCNQRGYGDG, the amyloid nucleation score turned out to be 5.32 ± 0.079. In turn, VFCLRLAYNAFREMSAHKC registered an amyloid nucleation score of 3.31 ± 0.18.

In the case of VFFKKAIIFRSKV, the amyloid nucleation score was 0.318 ± 0.33. The substance VFGVGGTYLFIDVEAVWGSG yielded an amyloid nucleation score of 1.61 ± 0.57. As to VFKGQMVVPPIYVYLVSWMG, the amyloid nucleation score was -1.06 ± 1.7. As to VFLFNTAYESKNPMSKLKVC, the amyloid nucleation score is -1.24 ± 0.5.

With VFLIDLLLTMCFFLYGAFLV, the amyloid nucleation score was 0.76 ± 1.1.

For VFRDVHD, the amyloid nucleation score stood at 0.417 ± 0.42.

The substance VFRTISYRV displayed an amyloid nucleation score of 0.039 ± 0.69. Substance VFSFLPSYGHKCTAKQFFSA had an amyloid nucleation score of -0.3 ± 1.4. VFYFELKG had an amyloid nucleation score of -0.183 ± 0.28.

VFYFYYFDEMCVSSMNRLKL yielded an amyloid nucleation score of -0.36 ± 0.27. VFYGCVDESCDLNRLGSVSY displayed an amyloid nucleation score of -0.101 ± 0.54. VGELFCGWSRRERYPVWSLV registered an amyloid nucleation score of 0.255 ± 1.4. As for VGFGPVWTRPYNTWYNYGKS, the amyloid nucleation score worked out at 0.514 ± 0.66. VGIEFLYLPFVSSRWVVTKW registered an amyloid nucleation score of 0.277 ± 1.4. Take VGISCPYYLGRGIMVEARSD: the amyloid nucleation score is -0.006 ± 0.62. Consider VGIWIGVDMGIGWGRDSVYV, for which the amyloid nucleation score worked out at 0.125 ± 0.53. Substance VGMSSDCAGSLRRWRLWARL returned an amyloid nucleation score of 4.55 ± 0.1. The same measure for VGNEWSVLRLGGGVGSIFL: -1.07 ± 1.3; for VGNNKLFKTPMKDRELMICL: -0.184 ± 0.48. VGNRCGVL yielded an amyloid nucleation score of 0.05 ± 0.33.

In the case of VGPIFLHTLRRSVN, the amyloid nucleation score was -0.532 ± 0.83. VGSQKCLYCGVAYSEGVWIY: the amyloid nucleation score entry was “inactive”. In the case of VGVMFG, the amyloid nucleation score was -0.06 ± 0.69. VGVSAVSTNSSVSKIFGTSW yielded an amyloid nucleation score of 0.746 ± 0.85. Turning to VHCHMEITSWLGRRS, the amyloid nucleation score amounted to 2.8 ± 0.12. The value for VHDVWEGFICGLPKYRGRLM was 0.026 ± 0.75; that for VHIPHDCISAIVFRSSAAIS was -0.331 ± 0.49; that for VHNHISP was -0.836 ± 0.37.

VHSCYLVLARQWNVIKISHI came in with an amyloid nucleation score of 0.039 ± 0.43. Turning to VHTGLVSEIRRDKREGAYPE, the amyloid nucleation score stood at 0.128 ± 0.99. As for VHTVYLLVDTR, the amyloid nucleation score was 0.289 ± 1.2. The same measure for VHVLWLWQSMLLVHWSAV: 1.29 ± 0.93. VIESG: the amyloid nucleation score stood at 1.34 ± 0.93.

Take VIFSGVTRFHSRTCLRFVMI: the amyloid nucleation score was -0.09 ± 0.79. VIKSRP showed an amyloid nucleation score of 0.639 ± 0.42. The value for VILFNSNTEYQKLEQLLELW was 0.153 ± 0.23; that for VILSYRLSEWGSSGDGDGRR was -0.562 ± 0.8; that for VIMCVSRCTVRCV was 0.486 ± 0.52. As for VIRFSGVLCMIDL, the amyloid nucleation score was found to be 5.09 ± 0.071. On to VISIFVEF, for which the amyloid nucleation score is 3.69 ± 0.12. The substance VITVSGSEGEIEWSS displayed an amyloid nucleation score of -1.64 ± 2.7. As to VKHCQFR, the amyloid nucleation score was found to be 1.69 ± 0.73. The substance VKIHASEVYFPMQSTYLMVD yielded an amyloid nucleation score of 0.086 ± 0.72. The value for VKPLLIHIRALLEM was 1.55 ± 0.52; that for VKVGVCGSVGWLHTGVQSNG was 0.804 ± 0.3. In turn, VLANDVVPNSIYKKVSITYC came in with an amyloid nucleation score of 0.884 ± 0.7. In the case of VLATGVCACTGVYTFMTWWV, the amyloid nucleation score is -0.455 ± 0.47.

The substance VLCVFCGNLHMIVLDCAFDA yielded an amyloid nucleation score of 8.589 ± 0.051. The value for VLESIQGCYFLGASWIAEFR was 0.409 ± 0.48; that for VLFLDI was 0.793 ± 0.58; that for VLFYQF was -0.382 ± 0.69. The substance VLGMCGTRYIDFF yielded an amyloid nucleation score of 3.12 ± 0.085. VLGSVIGFLWNP came in with an amyloid nucleation score of 2.23 ± 0.088. On to VLGYSRPLSDTSSVGTIIPA, for which the amyloid nucleation score was found to be 0.172 ± 0.38. As for VLKCFSLEVVTWDSACLAGL, the amyloid nucleation score is 0.252 ± 1.1. The value for VLKCRERRFRIHGHWTRRGP was -0.63 ± 0.47; that for VLLCNFRSRVWRYRCFKAFS was 0.93 ± 0.19.

Consider VLLTR, for which the amyloid nucleation score stood at 0.505 ± 0.36. For VLLWVGLTYATGLGRRSSLF, the amyloid nucleation score is -1.3 ± 0.97.

VLMLRSGWPQRRPHFG returned an amyloid nucleation score of -0.301 ± 0.76. The value for VLMQVSTLAAWDSKRDMTSC was 0.528 ± 0.35. Regarding VLMVPWVDGSCSS, the amyloid nucleation score was -1.06 ± 1.3. Substance VLPCSGQA came in with an amyloid nucleation score of 0.79 ± 0.26. VLTNESRGYTIRLGSYSRFV displayed an amyloid nucleation score of 2.4 ± 0.49. With VLTTGTYFATVYIK, the amyloid nucleation score entry is “inactive”. Substance VLTVAGF had an amyloid nucleation score of -0.561 ± 0.44. The same measure for VLVVTALLSRV: 1.67 ± 0.22.

Regarding VMKDTQLLCNFRVSRVLMFE, the amyloid nucleation score entry was “inactive”.
